These results are taken from the DeepSol protein solubility set.

The nature of this series: soluble on expression in E. coli; label from the status in PepcDB or PDB records.
As to “MSIFDHYQSRYEAAKDEEMSLQEFLALCKDDKSAYANAAERLLMAIGEPEIIDTAKDPRLSRIFSNRVISRYETFKDFYGMEDAIEQIVSYLKHAAQGLEERKQILYLLGPVGGGKSSLAEKLKSLMEAMPIYVLSANGERSPVNDHPFCLFKATEDGEILKTDYGIEQRYLRSIMSPWAAKRLHEFGGDITKFKVMKVRPSILDQIGIAKTEPGDENNQDISSLVGKVDIRKLEHYSQDDPDAYSYSGALCKANQGLMEFVEMFKAPIKVLHPLLTATQEGNFNGTEGLSAIPFDGMILAHSNESEWQTFRNNKNNEAFLDRVYIVKVPYCLRVSEEVKIYQKLLENSELSQAPCSPSTLETLAQFSILSRLKEPENSS”, the “soluble on expression in E. coli” value is on record as “not soluble”.

Consider “MRRYFGTDGVRGEAGKPPLTPEFVLKLGQAAGAYFLAQEKRPVVLLAKDTRESSDLLEAALAAGLMSQGVRVEHLGVLPTPGVAHLTKALKATAGAVISASHNPYQDNGIKFFGPTGEKLPDGAEEEIERLLLEDHPTRGIGTVGDFREAERMYLDFLLAHAPDLTGLKVGLDLAHGATYRIGPKLFQKAGAEVMAFFNTPDGRNINRGCGSTHPEALSRFVVELGLDLGIAFDGDGDRVQFIDRKGRLFHGDHVLYLAALAFGEKGVVGTVMSNMALEVALKERGLAFHRAAVGDRYVLEKLKETGLALGGEPSGHVIFLRHHTTGDGLLTALLTLKALKALGGDLADWYEALPLYPQVLLNVRVSDKAKVMADPRLGEAVREAEARLGGRGRVNVRPSGTEPVVRVMVEAEEGAEEVARELAERVRALSQEAQAV”, for which the “soluble on expression in E. coli” value is given as “soluble”.

As for “MGSDKIHHHHHHMSEKRQPWVQDLLWRLEALGFDLFIGAVRMMGVDRASDFGGWLGRTFGPMSGAHKVASRNLKLAFPDKDAAWHETILREQWDGLGRSFAEFPLMDKILPSTGRVEVVGKERLVEIAENRIPVVFVSGHLSNWEVMPAAIVDSGVICEMTYRAANNPYVDKRIKESRFRYGVRLFAPKGGDGARELLEGMKQGKSVALMNDQKFNSGVAAPFFGHLAHTAPGPTRLAIRFGTVLQPMSVQRLKGARFRAVVHDPIVPPKTGDRTADIEAGVRMINAFMEDRIRERPAEWFWVHRRWPNEVYAALAERERAAESSS”, the “soluble on expression in E. coli” value is reported as “not soluble”.

Turning to “MTTERVLQYPNLLKIVPYLSYSKRMELSKVSPEFRSIHSRLDYSLKTMSFSQDYGAISEEGPIEVGSGILKVESIEYIFEYDENMDQVKIKCLLAPELVRFSNDKSIIRRYFHYYLAASQRIVQHVKLRESDSPFRNLQSLKIPSISWTLNGAREYPQFINFQNHVFEKLELINYESIVLTETQVKSCKHLVLKKETIYQEYTVGNENSAIRNFYCILSNMKLELVLGLNYVESFILLCNRLLLDTLHIGSSVTAIFIKEPLLNVWRTLLERYEDSRGTFMGSGHRKCAILSTDNNIKVAVFENYFGKDSNGKESFTAIKMNNNVEFDA”, the “soluble on expression in E. coli” value was “not soluble”.

In the case of “EAPLLYGDSSPEIVLVGHGSTYGVIKEIVDIFSKDKKIAMMHFSQIYPFPERDRFDYIEFLKNANLVISVENNATGQFAKLMRAETGFEFARQILKYDGRPFTIEKLKEEIDACL”, the “soluble on expression in E. coli” value is reported as “not soluble”.

With “MPRPDNVPVYTMRQLAAFVAVAETGTISGAAERMHLSQSALSAAVTDLEKALKAQLCVRRRARGVQLTPTGEAVLSRARALLQQAGELQSDASGEGGVVAGPIAVGCYPALGPTILPSMLYAFTAEYPRASVEFREDTQNRLRTQLEGGELDVAIVYDLDLSPEWQTVPLMTREPMVVLGAEHPLAGVDGPVRLADLAEHPMVLLDAPPSTNHAMDVCREAGFAPRVAYRTANFETARAFVGRGLGWTLLLQRPRVDVTYEGLPVVVKPIAEPKPASVAVVVAWHQEATLSRVARAFIRFVTA”, the “soluble on expression in E. coli” value is “not soluble”.

For the sequence “MGAFFVGVIWHFPVLAFCPLPDKPQWVAVRQVVDGDTLRLVDGRSVRLIGINAPEMGRKGRTSEPYAEAARRRLQALVKANDDRVGLVPGVEGKDKYGRTLAHIYSRNGDNLEAQLLSEGLGYRVAIAPNVRLSGCQQLAEQAARQAGVGLWRHSPVVAASDVRQSGFAVVRGRIEGIERNRGGVWLTLGSTLVLQVPARLQRNFPASFFDNLKGRQVEARGWVLDRSRRGGLKPGQRRWVLPLTDPSMLERISGLEHHHHHH”, the “soluble on expression in E. coli” value was “not soluble”.

Turning to “GSLKCILLNQAEELPIEFLPKDGVYGKGKLFDSRNMEIENFTESDILQDARRAAEAHRRARYRVQSIVRPGITLLEIVRSIEDSTRTLLKGERNNGIGFPAGMSMNSCAAHYTVNPGEQDIVLKEDDVLKIDFGTHSDGRIMDSAFTVAFKENLEPLLVAAREGTETGIKSLGVDVRVCDIGRDINEVISSYEVEIGGRMWPIRPISDLHGHSISQFRIHGGISIPAVNNRDTTRIKGDSFYAVETFATTGKGSIDDRPPCSHFVLNTYKSRKLFNKDLIKVYEFVKDSLGTLPFSPRHLDYYGLVKGGSLKSVNLLTMMGLLTPYPPLNDIDGCKVAQFEHTVYLSEHGKEVLTRGDDY”, the “soluble on expression in E. coli” value is listed as “soluble”.

In the case of “MSLNSTQMNKQVIDKYTQRHELYLEQLLNEIIIPAPQIRSALHYALFSGGKRIRPILVYLAGDLIDVDQGVLDIIAAALELTHCYSLIHDDLPAMDNDDLRRGKPSCHKAFDEATAILVGDGMQALAIEVLLMRLSPLLPAAQVVAITQVLVNASGISGMVSGQSLDLSELAKSSVTEEQLREIHLLKTGKLILACFEMVLAAQHEVSEQIKSALRTYGKHIGLVFQMQDDYLDLYAPTQILGKGRSSDQANQKTTFATLFNKQQLEEEIAVHYQIAMDSLRLFGSKAAALIELTKQLQNRSNLSEGHHHHHH”, the “soluble on expression in E. coli” value was “soluble”.

In the case of “MSLTEFLERNAALYGSEKCLTEINLDLQESHNVIWREYELIENNPAGEYRRDMTWKVFDEKANRFANLLIKRGIKKGDKVAILLMNCLEWLPIYFGILKAGAVAVPLNFRYTAEEIKYCLELSDSIALVFGPEFIGRIENIYDQIIPKIKLLLFAGENRPSFAESYDRLTANCPSEAPKVEITDDDDAAIYFSSGTTGFPKAILHAHRSLVSACYTEQKHHGQTREDNFLCIPPLYHTGAKMHWFGSLLSGSKAVLLRGIKPEWILRTVSEEKITIVWLLVPWAQDILDAIERGDVKLEDYDLSQWRLMHIGAQPVPPSLIRRWKKYFPHHLYDTNYGLSESAGPGCVHLGVENIHKVGAIGLPGYNWEAKIVDENGCPVKQGEVGELAVKGPGVMKCYYKDPEATAAVLKDGWLLTGDMARMDEDGFIYLVDRKKDVIISGGENIYPVQIEDFLRSHEAIKDAAVIGLPDKRLGEIAAAIIELKPGFECTEEEINKFCLVLPRYKRPRKIIFDKVPRNPTGKIEKPRLREKYGVVALVEAETEGHHHHHH”, the “soluble on expression in E. coli” value is recorded as “soluble”.

“MGSDKIHHHHHHMILVLFYRTTKSHQTHSRHMSVNTTELSIEIIDIVSDRDGARLRDIVEEVDVAKSTAHKHLTTLRDSGFLVKRGEIYQVGLRFLNYGEQARSRWPGYPHIEEAIAALTERTEEECDFVAPDRGRVITIAESYHKWAKFEGTTTDGPSKEYRARTGSYYHMHATASGLAVLSTYSKSRVEDVIERWGLPARTDHTITSREELHAELEQIRERGYAVDDQGYTDGMRSIGKAVHGPEGDVIGALSVSGPTYRVDGMVLEQEVPNALRDVVDELEERLRTTN”: the “soluble on expression in E. coli” value is given as “not soluble”.

Take “MSLATIDSMNKDTTRLSDGPDWTFDLLDVYLAEIDRVAKLYRLDTYPHQIEVITSEQMMDAYSSVGMPINYPHWSFGKKFIETERLYKHGQQGLAYEIVINSNPCIAYLMEENTITMQALVMAHACYGHNSFFKNNYLFRSWTDASSIVDYLIFARKYITECEERYGVDEVERLLDSCHALMNYGVDRYKRPQKISLQEEKARQKSREEYLQSQVNMLWRTLPKREEEKTVAEARRYPSEPQENLLYFMEKNAPLLESWQREILRIVRKVSQYFYPQKQTQVMNEGWATFWHYTILNHLYDEGKVTERFMLEFLHSHTNVVFQPPYNSPWYSGINPYALGFAMFQDIKRICQSPTEEDKYWFPDIAGSDWLETLHFAMRDFKDESFISQFLSPKVMRDFRFFTVLDDDRHNYLEISAIHNEEGYREIRNRLSSQYNLSNLEPNIQIWNVDLRGDRSLTLRYIPHNRAPLDRGRKEVLKHVHRLWGFDVMLEQQNEDGSVELLERCPPRMGNLEGHHHHHH”: the “soluble on expression in E. coli” value is recorded as “soluble”.

In the case of “MIRLLTLLALLLPVPGWAGCRQALALGLDVSGSVDGREYRLQLDGLAAALLAPEVQARLLAMPGHPIRLAVYEWSEPGFQRLILPWHQIDTAADLETVAATLRTTRRAAAPPGTAIGPAMHHGAALLAQQPDCWKRTLDLSGDGKHNMGPHPRVVKAALEGSGLTVNALVIGADSTTFTDLRQTQIGELSAYYGAWVILGPDAFVEVALGYEDYQAAMERKLRRELEGLVLSALPTRAATQLHAPVLPWPVLPQAAALEHHHHHH”, the “soluble on expression in E. coli” value is given as “not soluble”.
